Test: soluble fraction after stress (log2 fold change); higher = more stays soluble; pooled small domains, quantitative proteomics
Details: stress: pH 4
In short: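 Small protein domains from pooled custom libraries were exposed to pH 4, then quantified with high-throughput quantitative proteomics. The fold change in how much of each domain remains soluble is read as aggregation propensity. It is given as log2, with higher values meaning more stayed soluble.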

**Q.** For “HMDSVTVPDISGYSPKAAEDSINNAGLKINEQGLSGSGDGQVVERTSPSAGSKVKKGDSVTVYYSKA”, which “soluble fraction (log2)” value is on record?
**A.** 0.104

**Q.** For “HMDDGARQLVDQLNRLIANPAVSARIIHGYLILEGRVESEWEKTRTLLLAQVAGLPVIDLITVS”, which “soluble fraction (log2)” value is on record?
**A.** -2.12

**Q.** For “HMDIDGVSENGRLILAALDKEALDFDTLAAETGIQESRLRTELTLLEIRKLIMKLPGQRYRLI”, which “soluble fraction (log2)” value is on record?
**A.** 0.28

**Q.** With “HMSEYVIVTGEKVNLRVGPGMDYEIAGQVVKGDKLELLASEGDWSKVKTGSGSIYYISSSLVQKA” as the sequence, how does the “soluble fraction (log2)” value read?
**A.** -0.334

**Q.** Which “soluble fraction (log2)” value does the source give for “HMRIEYYDDEELDRYIGTPASGYREAAVEEFREILLTLDADDVPGWVRSLQLRGIEFPESLRPELYL” here?
**A.** -1.5

**Q.** With “HMTAVAAEQQAQDAYRQTAANNLNEIQAKYKLPDSESDDFFTFAYERGFTQEDFIDIGLVDKIMGDYV” as the sequence, how does the “soluble fraction (log2)” value read?
**A.** -0.203

**Q.** For “HMTKQRSIILDLLKANQDRHLTAEEMLELLNQNHTPVSKATLYRYLDMLVSQNAVRKFIIDDQPSAGYQYL”, which “soluble fraction (log2)” value is on record?
**A.** -0.0717

**Q.** Which “soluble fraction (log2)” value does the source give for “HMLSTRERMSSLMAQLQVQQFMPFHRLFTISEGRMGVIVTFLAMMELVKENLIKLIQAQEYGPIHVSLG” here?
**A.** 0.22

**Q.** For “HMEETLRALAKKISEKVLKSGRSTTLEPMNPYERRIIHSAVSEIEGVSSKSVGEEPYRKVVISSDNP”, which “soluble fraction (log2)” value is on record?
**A.** -0.0148

**Q.** For “HMSETAVTYNEDFEADGSLRPNEQAVLDAFTGVLKLTVSELEKKTGLRNVVPVVASLMAKGAVEVSEELK”, which “soluble fraction (log2)” value is on record?
**A.** -0.763

**Q.** For “HMDVLTARENEVLQLLAKGMSNKEIASVLVITEKTVKAHVSSILSKLNLSDRTQAALYAVKNGI”, which “soluble fraction (log2)” value is on record?
**A.** -0.154

**Q.** Which “soluble fraction (log2)” value does the source give for “HMSDFKDIILKLRNEQGFTQEKLADVLGTSKSTVGMWEMGVRFPSKELYEAIADYFNVDIDYLYGRTDIR” here?
**A.** -1.35

**Q.** Which “soluble fraction (log2)” value does the source give for “HMRVDLATEVHSVLRRMMSRPPTLQEIRADLDGEEPGRVHEALDALRAAFRGGRGPKNPYESLKRSLRRG” here?
**A.** -0.126

**Q.** For “HMKHYIDFIAEQLKTLTAIPSPSGYTKNATDYLMKLLQDMGYEPKLSRKGNVFVTLGGDGEPLVLAAHVD”, which “soluble fraction (log2)” value is on record?
**A.** -0.112

**Q.** For “HMRIHKQLGDRIRNLRLSSGMNQEELAFKSGISAAHLGQIERGLKSPTISTIQKIAKALNVTLPILF”, which “soluble fraction (log2)” value is on record?
**A.** 0.311

**Q.** For “HMNETNKMPNLVNQTDSSAIAQLNAMELGLKITTKEESSETVLAGYVIRTEPAADTELTKNQAVTVYVS”, which “soluble fraction (log2)” value is on record?
**A.** 0.0693

**Q.** With “HMDTDWDVSGVTPDQYRLLFSVLGGLAGVKDVGLNPDGLRIIHTPEALPSIEKAFQANGLKLKRNVD” as the sequence, how does the “soluble fraction (log2)” value read?
**A.** -0.899

**Q.** With “HMSHGYVEMQAKDDQVLLAALKNHPWFEKVSIDEETGLTKAILTQPIEAEELNSMLFEKGIVLSHLVKRK” as the sequence, how does the “soluble fraction (log2)” value read?
**A.** -1.2

**Q.** With “HMQNLISSDEAKNIALQHANLTDNQVTFIKVSKDYDDGIHIYEVEFHYNNREYNYDINAINGTILSYEQ” as the sequence, how does the “soluble fraction (log2)” value read?
**A.** -0.173

**Q.** Which “soluble fraction (log2)” value does the source give for “HMEEPFRIEKKGDIYYISGKTVERLVAMTDLDNDSAVKRLQRTLKRMGVEDALREHGINPGDTVVIGNYEF” here?
**A.** 0.04

**Q.** Which “soluble fraction (log2)” value does the source give for “HMYYIITNGKYWVIENPIRPGEYMESTKSSNAKQFTFKQAKNLLNARSKKLGWIRNGYSMVGED” here?
**A.** 0.427

**Q.** Which “soluble fraction (log2)” value does the source give for “HMDYEVPEELQQKFEEFPRLKEAFYQLTPGRQHQYLYYFSQAKRSQTRYNRIDKYMNAILQGKGMK” here?
**A.** 0.167

**Q.** For “HMVLENLKKFIDSKGISVSAFEKSIGMSNNSFRKSLNSGGHIGSDKLENILKIYPELNPVWLLQGEGEML”, which “soluble fraction (log2)” value is on record?
**A.** -0.0839

**Q.** With “HMTAFEPYLVKVMASVLNIRKGPGTSYAITGQIKDKGTYTIVAESGSWGKLKSGAGWISLSYTSKAGKA” as the sequence, how does the “soluble fraction (log2)” value read?
**A.** -0.591

**Q.** Which “soluble fraction (log2)” value does the source give for “HMDVLFGNRLRQLLDERNISQAHFADRIGVSRSRMNNYVAQRSEPDYATLIRIANTLDTSIDFLLGKS” here?
**A.** -0.45

**Q.** For “HMESILDDFPGLGAVRRAALLEHFGDIDRLRAASAVEITEVDGFGDVLARELHDFLHRPKPDA”, which “soluble fraction (log2)” value is on record?
**A.** -0.768

**Q.** Which “soluble fraction (log2)” value does the source give for “HMNKMHKLPSVSEILNKVRLQKIHNESFIKFKIKEEIDRYRKLAKKDQLFLSRDEITYEIIEKLLNFSMPS” here?
**A.** -0.771

**Q.** For “HMSDIDHIAGRRIRQARLNAGMTLETLASQAGISKALLSKIENSKVSSPLATFSKISKVLGVPLSDLLKE”, which “soluble fraction (log2)” value is on record?
**A.** 0.204

**Q.** With “HMTYFDIAPELLTVYKEINDIPRDINQIVRKTGLSINEVSYKTMILQLEDKIVELPGQRFIRNS” as the sequence, how does the “soluble fraction (log2)” value read?
**A.** -0.815

**Q.** Which “soluble fraction (log2)” value does the source give for “HMPEDQISYTDLIKQINDGNVEKIKMTVGSTTIKVNLKEQEEPKTAIVPSTQAFIELVQEKVQDGNEITLI” here?
**A.** -0.39

**Q.** Which “soluble fraction (log2)” value does the source give for “HMVSSAEQQARDKESGMILVQEAGGPDKARALVEKMRQDIRNPALDGTRRQMLRGHVARIELALAELETG” here?
**A.** -0.0115

**Q.** For “HMGAYITYEVKPGDTLWDIANKFPGVSADNIKTWNKVDELIKAGERLKINTQTITDYSPDKYPS”, which “soluble fraction (log2)” value is on record?
**A.** -0.575

**Q.** Which “soluble fraction (log2)” value does the source give for “HMEAISIYPNPTDNELHLSTSVQEVRIYNMYGIEVTRAANTDRLAVSHLPKGVYLVHADGAVLKMIK” here?
**A.** -1.29

**Q.** Which “soluble fraction (log2)” value does the source give for “HMIKLSTNENTALRLVMERGLVTESELKGLFDNPVAVMESLISKMIETNTHWIHSERSENGEWVYAWQ” here?
**A.** -1.46

**Q.** Which “soluble fraction (log2)” value does the source give for “HMTLGPKQMGEAIIKNLKEKTGKSLEEWSQRILIHELTDKKEIIDFLKNDNGLGHFQALKIFEHLNGK” here?
**A.** -0.652

**Q.** For “HMLLTPLEETRLVIEEIVIPQKLTIDLLPRSSAIRKLQHELITHYQLRGTSVGNEPNRRLRIYP”, which “soluble fraction (log2)” value is on record?
**A.** -0.633

**Q.** For “HMRLEEVSVPQRLLAAIAEEREVQIGIVDGRGGTRVLRVEPLALEGGRLRARDVESGEEFTVLIHRVLL”, which “soluble fraction (log2)” value is on record?
**A.** -0.809

**Q.** With “HMSGIVPAAPPLRPDLDIKWHTGDKVRHAKWGEGTIVSVKGEGEETELKIAFPGQGIRPFMQKYAPITR” as the sequence, how does the “soluble fraction (log2)” value read?
**A.** 0.214

**Q.** Which “soluble fraction (log2)” value does the source give for “HMDEKLAHKLVSDFRQAAASLERFPFRNPVLRSEVFTVEKYRKLVFDKYHILLYQVKDQVVYVEYVIDGRQ” here?
**A.** ≥ 0.43

**Q.** With “HMVKLDDLTGQDKATAEATITNSGLKYSEQQEFSDEVEAGKVIRTDPGAGTSSLKAGDTVTVYVSRGPEN” as the sequence, how does the “soluble fraction (log2)” value read?
**A.** -0.0896

**Q.** With “HMNKSGVVLIRVTVDASGRVTSAAYEPKGSTTSDVELVAEARKAALRTRFTESRTVIEGGVITYIFKL” as the sequence, how does the “soluble fraction (log2)” value read?
**A.** -0.0968

**Q.** For “HMESSKLQASIINYLERRPTQKFTAEELFKGLSLEKASVFNELVKELTSLERSHKVEITADDKFKIARPQ”, which “soluble fraction (log2)” value is on record?
**A.** 0.0446

**Q.** With “HMILNPQELGERIRKLRLKRNKTQSYFADMLYISSSYLALIESGKRVPNLDLLIHIAKFTDVTLDYLVFG” as the sequence, how does the “soluble fraction (log2)” value read?
**A.** -0.573

**Q.** For “HMQLPIGDVKLSVEHLSSGTALQDISFEVHRGEIFGFLGLVGAGRSETAETIFGLREKTDGKISIDGTVL”, which “soluble fraction (log2)” value is on record?
**A.** 0.117

**Q.** With “HMIDELLDPTHRIMVRHPRVDYVSPGFLIGPDKDVILWGFTGGIIARLFDFLGWTRPWDQSHVQDLPPYML” as the sequence, how does the “soluble fraction (log2)” value read?
**A.** -0.242

**Q.** With “HMDVSVPDVTGTRLDRAQSLLEAQGLTLGKVEEFFHATEPAGIVYDQEPRPGTRVDEGTAISVSVSKGPEA” as the sequence, how does the “soluble fraction (log2)” value read?
**A.** 0.0997

**Q.** Which “soluble fraction (log2)” value does the source give for “HMDLYIILGLERSATLSDVRRAYRRLARKYHPGINPGDRNSASVFTRVSEAYQVLSDPEQRRRYDSR” here?
**A.** -0.583

**Q.** With “HMKHKGILTTWNDDRGFGFITPKEGKEPVFVHISAFARGQGRPVLNASLTYRLVRDDQQRPRAEAVRL” as the sequence, how does the “soluble fraction (log2)” value read?
**A.** 0.189

**Q.** Which “soluble fraction (log2)” value does the source give for “HMQIAGLDDIDNRIIDLLLKNGRASYSEIGAAVGLSRTAAKNRIRALEASGIIRGYQAILDPQA” here?
**A.** 0.0596

**Q.** With “HMHHDDHNQQEEIKEKLLAMVADGERHHVTEVRQLDEDWDMVTKVMKELMDEEQLLMDGSYLILSA” as the sequence, how does the “soluble fraction (log2)” value read?
**A.** -0.551

**Q.** For “HMSTPVPIEGQPTENLNLRDQPSTSGKILTTIPKGKTVTILSEKNANGWYKVSYNGKTGYVSGSYFKVTK”, which “soluble fraction (log2)” value is on record?
**A.** -0.14

**Q.** Which “soluble fraction (log2)” value does the source give for “HMAHTGGNTLTREKAVSVRSASDALLFEIHWNETPREDILSTREEKVDGKTYSIITIRTGKGREDHYYLLS” here?
**A.** 0.295

**Q.** For “HMVEIGENIKKLRKAKRMTQKEVANQLNVTPQTISKWERNISYPDLDMLVKLSQLFHISTDALL”, which “soluble fraction (log2)” value is on record?
**A.** ≥ 0.43

From the domain aggregation screens of Martell et al. (2025)
